Values quoted from earlier work, collected in article PMC11299584.

Molecular target: ANGPTL3/8 complex (Homo sapiens) (UniProt Q9Y5C1)
Experiment: SPR

Chain of UniProt Q9Y5C1 (Q9Y5C1 17-460, chain 1 of 2): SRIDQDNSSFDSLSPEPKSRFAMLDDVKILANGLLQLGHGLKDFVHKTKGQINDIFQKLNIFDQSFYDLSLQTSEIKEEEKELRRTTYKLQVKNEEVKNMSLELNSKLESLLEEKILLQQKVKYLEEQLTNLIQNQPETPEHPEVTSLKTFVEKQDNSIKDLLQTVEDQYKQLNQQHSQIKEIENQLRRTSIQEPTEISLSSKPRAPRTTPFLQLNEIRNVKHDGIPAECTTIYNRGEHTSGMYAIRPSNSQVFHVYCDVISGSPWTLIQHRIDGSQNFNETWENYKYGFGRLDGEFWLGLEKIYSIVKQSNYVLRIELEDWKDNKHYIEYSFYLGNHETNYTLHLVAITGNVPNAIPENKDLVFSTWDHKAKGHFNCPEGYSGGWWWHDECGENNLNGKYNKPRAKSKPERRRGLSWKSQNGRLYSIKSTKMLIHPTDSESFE
Chain of UniProt Q9Y5C1 (Q6UXH0 22-198, chain 2 of 2, further chain): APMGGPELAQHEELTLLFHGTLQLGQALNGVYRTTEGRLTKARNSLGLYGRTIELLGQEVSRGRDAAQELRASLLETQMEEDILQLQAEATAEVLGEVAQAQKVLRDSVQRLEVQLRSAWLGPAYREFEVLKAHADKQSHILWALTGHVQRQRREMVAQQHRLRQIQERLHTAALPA

Kd: 0.53 nM
Substance: APOA5 (from UniProt Q8C7G5)
